Source: PMC11310338
Read-outs that look alike come from different tables or passages of the source.

Tests used:
SCAF4-CID [1] = target: T1, SCAF4-CID (human, UniProt O95104 1-139); assay: SPR
T1 sequence: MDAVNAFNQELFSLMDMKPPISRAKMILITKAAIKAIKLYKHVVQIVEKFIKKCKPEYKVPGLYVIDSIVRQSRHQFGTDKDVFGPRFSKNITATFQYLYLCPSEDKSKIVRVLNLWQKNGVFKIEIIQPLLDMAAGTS

SCAF8-CID [2] = target: T2, SCAF8-CID (human, UniProt Q9UPN6 1-139); assay: SPR
T2 sequence: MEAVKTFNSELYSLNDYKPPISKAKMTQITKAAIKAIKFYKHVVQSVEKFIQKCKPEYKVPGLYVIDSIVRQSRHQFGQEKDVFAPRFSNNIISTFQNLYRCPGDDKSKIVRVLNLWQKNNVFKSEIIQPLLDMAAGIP

SCAF8-CID [3] = target: T2, SCAF8-CID; assay: competition FP
SCAF4-CID [4] = target: T1, SCAF4-CID; assay: competition FP
SCAF4-CID [5] = target: T1, SCAF4-CID; assay: competition FP; remark: listed apart in the source
SCAF4-CID [6] = target: T1, SCAF4-CID; assay: fluorescence polarization
WDR5 [7] = target: T3, WDR5 (human, UniProt P61964 1-334); assay: competition FP
WDR5 [8] = target: T3, WDR5; assay: fluorescence polarization
WDR5 L240K = WDR5 L240K (human, UniProt P61964 1-334, L240K); assay: fluorescence polarization
WDR5 [9] = target: T3, WDR5; assay: SPR

Binder | Kd (SCAF4-CID [1]) | Kd (SCAF8-CID [2]) | IC50 (SCAF8-CID [3]) | IC50 (SCAF4-CID [4]) | further results
GGGGTGGGGAG (ssDNA) [SRiApt-1 (F3_11-nt)] | 58.4 ± 5.8 nM | 56.3 ± 7.42 nM | 1500 ± 690 nM |  | 
CAGGTGGGTTC (ssDNA) [SRiApt-2 (F7_11-nt_B)] |  | 90.5 ± 25.8 nM | 2690 ± 1430 nM | 400 ± 143 nM | 
GTGGG (ssDNA) [SCAF4_LS (D2_5-nt)] | 140 ± 40.1 nM | 76.4 ± 7.33 nM | 1960 ± 240 nM |  | IC50 (SCAF4-CID [5]): 2750 ± 682 nM; Kd (SCAF4-CID [6]): 189 ± 40.1 nM
GGACC (ssDNA) [WDR5 lead sequence (H4)] |  |  |  |  | IC50 (WDR5 [7]): 8500 ± 4250 nM
GGTGGGGA (ssDNA) [F1_8-nt] | 88.6 ± 15.1 nM |  |  | 554 ± 106 nM | 
AGGTGGGT (ssDNA) [B2_8-nt] | 297 ± 48.1 nM |  |  | 1040 ± 419 nM | 
TTAAAGGGGTGGGGAGTCAT (ssDNA) [SRiApt-3] | 22.7 ± 1 nM |  | 291 ± 19.7 nM | 285 ± 26.6 nM | 
GGGGGCTGGACCCCTCAACT (structured_DNA) [WMiApt-1] |  |  |  |  | IC50 (WDR5 [7]): 431 ± 134 nM; Kd (WDR5 [8]): 797 ± 95.2 nM; binding result (WDR5 L240K): binds; Kd (WDR5 [9]): 138 ± 86.7 nM
TGGTGGGA (ssDNA) [D1_8-nt] |  |  |  | 1270 ± 864 nM | 
